Columns and labels:
H296-H296-H296-HT = experiment: ELISA; H296-H296-H296-HT coated at 2 ug/mL; HRP-labeled FNH3-8, ABTS; blank subtracted
H296-H296-HT = experiment: ELISA; H296-H296-HT coated at 4 ug/mL; HRP-labeled FNH3-8, ABTS; blank subtracted
H296-H296-HT, sequence (chain, as listed by the source limits assumed): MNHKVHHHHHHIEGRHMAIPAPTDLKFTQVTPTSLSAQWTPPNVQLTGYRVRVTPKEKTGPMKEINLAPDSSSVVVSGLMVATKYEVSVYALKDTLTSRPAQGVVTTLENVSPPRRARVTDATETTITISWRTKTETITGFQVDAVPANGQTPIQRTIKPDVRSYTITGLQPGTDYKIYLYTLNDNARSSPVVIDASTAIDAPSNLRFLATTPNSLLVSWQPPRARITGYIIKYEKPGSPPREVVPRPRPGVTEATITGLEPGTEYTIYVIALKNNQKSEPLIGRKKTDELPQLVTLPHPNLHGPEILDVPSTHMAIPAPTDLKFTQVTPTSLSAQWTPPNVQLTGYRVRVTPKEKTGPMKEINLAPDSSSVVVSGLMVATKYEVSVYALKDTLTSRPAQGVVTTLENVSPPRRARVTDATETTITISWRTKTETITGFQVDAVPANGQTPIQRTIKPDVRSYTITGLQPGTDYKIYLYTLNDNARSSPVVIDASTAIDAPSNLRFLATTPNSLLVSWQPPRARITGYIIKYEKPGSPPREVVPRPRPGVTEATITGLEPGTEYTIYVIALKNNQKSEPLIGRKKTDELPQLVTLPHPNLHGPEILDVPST

H296-H296-H296-HT, sequence (chain, as listed by the source limits assumed): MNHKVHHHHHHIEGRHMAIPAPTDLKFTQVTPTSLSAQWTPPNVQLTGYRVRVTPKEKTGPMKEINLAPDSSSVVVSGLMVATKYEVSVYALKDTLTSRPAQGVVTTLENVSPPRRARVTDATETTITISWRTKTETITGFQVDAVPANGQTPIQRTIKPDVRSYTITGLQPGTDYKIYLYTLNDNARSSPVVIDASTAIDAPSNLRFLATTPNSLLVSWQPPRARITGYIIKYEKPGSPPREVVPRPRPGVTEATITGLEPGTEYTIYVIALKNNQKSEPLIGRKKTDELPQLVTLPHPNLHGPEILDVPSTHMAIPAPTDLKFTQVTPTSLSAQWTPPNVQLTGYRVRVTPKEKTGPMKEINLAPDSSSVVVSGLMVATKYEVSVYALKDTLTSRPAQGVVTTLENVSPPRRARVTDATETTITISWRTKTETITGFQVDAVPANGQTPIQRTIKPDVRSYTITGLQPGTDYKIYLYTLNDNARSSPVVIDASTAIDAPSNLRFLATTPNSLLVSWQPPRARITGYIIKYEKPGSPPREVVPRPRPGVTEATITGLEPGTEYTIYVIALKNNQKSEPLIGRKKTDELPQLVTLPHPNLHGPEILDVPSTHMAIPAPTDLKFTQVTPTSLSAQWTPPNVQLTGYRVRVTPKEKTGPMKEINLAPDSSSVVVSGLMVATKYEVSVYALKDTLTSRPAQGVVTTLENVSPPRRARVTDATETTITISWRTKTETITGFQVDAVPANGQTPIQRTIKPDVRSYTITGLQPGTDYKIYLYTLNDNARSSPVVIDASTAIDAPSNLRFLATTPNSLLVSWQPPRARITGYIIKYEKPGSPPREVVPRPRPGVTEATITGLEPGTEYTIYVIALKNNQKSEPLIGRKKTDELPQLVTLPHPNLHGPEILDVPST

- 405 nm (Found Value - Blank) (H296-H296-H296-HT): 0.545
- 405 nm (Found Value - Blank) (H296-H296-HT): 0.843
Substance: FNH3-8 antibody (manufactured by TAKARA BIO INC.) labeled with HRP

— US20100255578A1
